Experimental data taken from patent publication US20200392227A1 (LYVGEN BIOPHARMA, published 2020).
Changes are numbered by the printed parent chain.

T1: human FcγRIIA(H131) expressed on CHO cells (human, UniProt P12318 34-317)
T1 construct: whole, on cells
T1 sequence (looked up): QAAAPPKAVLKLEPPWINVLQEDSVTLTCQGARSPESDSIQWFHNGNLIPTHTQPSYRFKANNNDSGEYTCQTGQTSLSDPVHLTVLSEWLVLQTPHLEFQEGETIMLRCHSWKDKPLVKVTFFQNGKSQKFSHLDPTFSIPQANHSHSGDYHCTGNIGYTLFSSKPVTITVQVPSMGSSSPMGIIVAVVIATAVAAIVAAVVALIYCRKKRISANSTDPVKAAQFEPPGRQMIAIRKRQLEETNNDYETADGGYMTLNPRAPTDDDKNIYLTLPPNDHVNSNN

T2: human FcRIIA protein (MednaBio, E1033) (human, UniProt P12318 34-218, limits assumed)
T2 construct: Bought; also called FcγRIIA
T2 sequence (looked up): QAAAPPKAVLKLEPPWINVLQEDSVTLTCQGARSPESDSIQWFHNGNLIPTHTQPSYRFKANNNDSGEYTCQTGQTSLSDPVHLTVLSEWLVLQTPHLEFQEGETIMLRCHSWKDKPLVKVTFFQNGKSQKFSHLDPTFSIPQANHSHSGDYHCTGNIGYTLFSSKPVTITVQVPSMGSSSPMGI

T3: human FcRIIB/C protein (MednaBio, E1034) (human, UniProt P31994 43-217, limits assumed)
T3 construct: Bought as FcRIIB/C; also called FcγRIIB; CD32B
T3 sequence (looked up): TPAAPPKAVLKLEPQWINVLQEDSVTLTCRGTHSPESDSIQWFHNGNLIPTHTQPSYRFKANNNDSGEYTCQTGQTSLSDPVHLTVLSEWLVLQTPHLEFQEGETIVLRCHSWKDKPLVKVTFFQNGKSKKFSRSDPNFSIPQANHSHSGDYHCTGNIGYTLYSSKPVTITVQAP

T4: human FcγRIIC expressed on CHO cells (human, UniProt P31995 43-323)
T4 construct: whole, on cells
T4 sequence (looked up): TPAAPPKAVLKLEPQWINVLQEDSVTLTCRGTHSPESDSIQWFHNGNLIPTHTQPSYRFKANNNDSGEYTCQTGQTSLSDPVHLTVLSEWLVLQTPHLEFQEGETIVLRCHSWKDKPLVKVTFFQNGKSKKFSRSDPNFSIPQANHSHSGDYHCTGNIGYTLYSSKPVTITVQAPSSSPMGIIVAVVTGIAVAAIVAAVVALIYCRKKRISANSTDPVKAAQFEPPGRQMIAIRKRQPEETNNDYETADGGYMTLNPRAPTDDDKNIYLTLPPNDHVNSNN

T5: human FcγRIIA(R131) expressed on CHO cells (human, UniProt P12318 34-317)
T5 construct: whole, on cells
T5 sequence (looked up): T1 sequence (looked up) with H134R

B1: anti-CD137 IgG1 with Fc variant G1m25 (antibody)
heavy: EVQLVQSGAEVKKPGESLRISCKGSGYSFSTYWISWVRQMPGKGLEWMGKIYPGDSYTNYSPSFQGQVTISADKSISTAYLQWSSLKASDTAMYYCARGYGIFDYWGQGTLVTVSSASTKGPSVFPLAPSSKSTSGGTAALGCLVKDYFPEPVTVSWNSGALTSGVHTFPAVLQSSGLYSLSSVVTVPSSSLGTQTYICNVNHKPSNTKVDKKVEPKSCDKTHTCPPCPAPELLGPSVFLFPPKPKDTLMISRTPEVTCVVVDVSHEDPEEKFNWYVDGVEVHNAKTKPREEQYNSTYRVVSVLTVLHQDWLNGKEYKCKVSNKALPAPIEKTISKAKGQPREPQVYTLPPSREEMTKNQVSLTCLVKGFYPSDIAVEWESNGQPENNYKTTPPVLDSDGSFFLYSKLTVDKSRWQQGNVFSCSVMHEALHNHYTQKSLSLSPGK
light: SYELTQPPSVSVSPGQTASITCSGDNIGDQYAHWYQQKPGQSPVLVIYQDKNRPSGIPERFSGSNSGNTATLTISGTQAMDEADYYCATYTGFGSLAVFGGGTKLTVLGQPKAAPSVTLFPPSSEELQANKATLVCLISDFYPGAVTVAWKADSSPVKAGVETTTPSKQSNNKYAASSYLSLTPEQWKSHRSYSCQVTHEGSTVEKTVAPTECS
notes: copies: 2 + 2
B2: anti-CD137 IgG1 with Fc variant G1m28 (antibody)
heavy: B1 heavy with E271V, L326F
light: B1 light
notes: copies: 2 + 2
B3: anti-CD137 IgG1 with Fc variant G1m27 (antibody)
heavy: B1 heavy with S265E, E271V
light: B1 light
notes: copies: 2 + 2

Key:
[1] = molecular target: T1, human FcγRIIA(H131) expressed on CHO …; test: FACS, CHO cells expressing FcγRIIA(H131)
Description: FIGS. 1A-1W are charts showing binding activity of various IgG variants as indicated to different types of Fcγ receptors expressed on CHO-K1 cells at the various concentrations as indicated. The concentrations of each IgG variant, from left to right, are 0 μg/ml, 0.3 μg/ml, 1 μg/ml, 3 μg/ml, and 10 μg/ml in FIGS. 1A-1C, 1E-J, 1L-1M, 1P-1R, and 1T-1V. For FIGS. 1D, 1K, 10, 1S, and 1w the bars, from left to right, correspond to the following concentrations of IgG variant: 0.3 μg/ml, 1 μg/ml, 3 μg/ml, and 10 μg/ml.
(§1) For FACS analysis of the IgG mutants' binding to different FcγRs, FcγR overexpressing CHO cells were harvested using trypsin-EDTA and were suspended in cold staining buffer (3% BSA in PBS). Test IgG mutants, which were diluted in staining buffer, were added into the cells. The mixture was incubated 4° C. for 2 hours, and then washed twice with cold staining buffer and re-suspended in PE-labeled anti-human IgG followed by incubation at 4° C. for 2 hours. The mixture was washed twice with staining buffer and re-suspended in 2% PFA in PBS for FACS.

[2] = molecular target: T6, human FcRIIIA-F158 protein (MednaBio, E1036) (human, UniProt P08637 17-208); test: BLI
T6 construct: Bought; also called FcγRIIIA(F)
In short: (§2)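 Binding was measured by biolayer interferometry on an Octet Red96 System. Commercial human Fc receptor proteins were loaded at 20 μg/mL onto anti-penta-HIS biosensors, which were then dipped into an 8-point 1:3 dilution series of test IgG starting at 300 nM in PBS with 0.1% BSA and 0.02% Tween-20, at pH 7.2 for Fcγ receptors and pH 6 for FcRn. Kd, kon and koff were obtained by global fitting, with data fitted to a 1:1 binding model.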

[3] = molecular target: T7, human FcRn protein (MednaBio, E1032) (human, UniProt P55899 24-297; P61769 21-119); test: BLI
T7 construct: Bought; assays at pH 6
In short: as §2

[4] = molecular target: T2, human FcRIIA protein (MednaBio, E1033); test: BLI
In short: as §2

[5] = molecular target: T3, human FcRIIB/C protein (MednaBio, E1034); test: BLI
In short: as §2

[6] = molecular target: T8, human FcRI protein (MednaBio, E1031) (human, UniProt P12314 16-288, limits assumed); test: BLI
T8 construct: Bought; loaded on anti-penta-HIS biosensors; also called FcγRI
In short: as §2

[7] = molecular target: T9, human FcRIIIB protein (MednaBio, E1037) (human, UniProt O75015 17-200); test: BLI
T9 construct: Bought; also called FcγRIIIB; FcgRIIIB
In short: as §2

[8] = molecular target: T10, human FcRIIIA-V158 protein (MednaBio, E1035) (human, UniProt P08637 17-208); test: BLI
T10 construct: Bought; also called FcγRIIIA(V); FcgRIIIA(V)
In short: as §2

[9] = molecular target: T4, human FcγRIIC expressed on CHO cells; test: FACS, CHO cells expressing FcγRIIC
Description: as §1

[10] = molecular target: T5, human FcγRIIA(R131) expressed on CHO …; test: FACS, CHO cells expressing FcγRIIA(R131)
Description: as §1

T10 sequence (P08637 17-208 F176V): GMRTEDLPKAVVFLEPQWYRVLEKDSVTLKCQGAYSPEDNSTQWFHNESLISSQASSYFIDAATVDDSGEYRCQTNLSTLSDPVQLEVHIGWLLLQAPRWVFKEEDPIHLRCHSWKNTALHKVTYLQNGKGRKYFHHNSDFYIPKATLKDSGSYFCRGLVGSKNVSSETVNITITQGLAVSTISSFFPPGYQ
T6 sequence (P08637 17-208 limits assumed): as the sequence (P08637 17-208 F176V) above, with V160F counted along it
T8 sequence (P12314 16-288 limits assumed): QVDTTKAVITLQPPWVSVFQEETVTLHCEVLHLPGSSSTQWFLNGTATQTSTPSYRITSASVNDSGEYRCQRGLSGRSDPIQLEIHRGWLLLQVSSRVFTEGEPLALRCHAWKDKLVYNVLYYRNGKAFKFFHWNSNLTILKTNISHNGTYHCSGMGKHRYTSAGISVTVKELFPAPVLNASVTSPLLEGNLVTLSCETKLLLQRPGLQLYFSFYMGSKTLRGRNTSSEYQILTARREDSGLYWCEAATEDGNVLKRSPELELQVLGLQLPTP
T7 sequence (P55899 24-297 limits assumed, form in doubt, chain 1 of 2): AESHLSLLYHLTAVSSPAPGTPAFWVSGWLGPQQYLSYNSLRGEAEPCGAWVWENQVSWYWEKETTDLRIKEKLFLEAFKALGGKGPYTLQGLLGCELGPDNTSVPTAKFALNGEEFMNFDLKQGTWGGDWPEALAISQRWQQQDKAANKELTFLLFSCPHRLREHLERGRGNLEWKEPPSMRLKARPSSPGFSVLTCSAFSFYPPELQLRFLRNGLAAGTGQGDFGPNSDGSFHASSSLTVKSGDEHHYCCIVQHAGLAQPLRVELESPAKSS
T7 sequence (P61769 21-119 limits assumed, form in doubt, chain 2 of 2): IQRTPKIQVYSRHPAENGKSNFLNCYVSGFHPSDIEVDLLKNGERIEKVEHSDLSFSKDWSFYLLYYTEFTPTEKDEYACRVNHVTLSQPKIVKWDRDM
T9 sequence (O75015 17-200 limits assumed): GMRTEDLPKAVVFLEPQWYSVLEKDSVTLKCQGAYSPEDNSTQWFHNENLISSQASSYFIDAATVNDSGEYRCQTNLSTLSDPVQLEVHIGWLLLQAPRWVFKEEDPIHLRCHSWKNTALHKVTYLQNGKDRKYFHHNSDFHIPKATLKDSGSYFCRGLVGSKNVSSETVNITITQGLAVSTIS

| Binder | binding result [1] | binding result [2] | Kd [3] [nM] | koff [3] [s⁻¹] | kon [3] [M⁻¹ s⁻¹] | binding result [4] | binding result [5] | binding result [6] | binding result [7] | binding result [8] | binding result [9] | binding result [10] | Kd [5] [nM] | koff [5] [s⁻¹] | kon [5] [M⁻¹ s⁻¹] | Kd [6] [nM] | koff [6] [s⁻¹] | kon [6] [M⁻¹ s⁻¹] |
| --- | --- | --- | --- | --- | --- | --- | --- | --- | --- | --- | --- | --- | --- | --- | --- | --- | --- | --- |
| B1 | no binding (tested: 10 ug/ml) | no binding (tested: 300 nM) | 15 | 0.0093 | 620000 | no binding (tested: 300 nM) | no binding (tested: 300 nM) | no binding (tested: 300 nM) | no binding (tested: 300 nM) | no binding (tested: 300 nM) | no binding (tested: 10 ug/ml) | no binding (tested: 10 ug/ml) | – | – | – | – | – | – |
| B2 | no binding (tested: 10 ug/ml) | no binding (tested: 300 nM) | 17 | 0.011 | 650000 | no binding (tested: 300 nM) | – | – | no binding (tested: 300 nM) | no binding (tested: 300 nM) | – | no binding (tested: 10 ug/ml) | 410 | 0.2 | 480000 | 240 | 0.16 | 640000 |
| B3 | no binding (tested: 10 ug/ml) | no binding (tested: 300 nM) | 16 | 0.01 | 650000 | no binding (tested: 300 nM) | – | no binding (tested: 300 nM) | no binding (tested: 300 nM) | no binding (tested: 300 nM) | – | – | 410 | 0.1 | 260000 | – | – | – |
